Results: patent EP4703474A1, “ANTI-LRRC15 ANTIBODY” (priority 2023, dated 2024)

Tested on: Gastric carcinoma cell line Caki-1
Assay: In vivo antitumor effect, Caki-1 subcutaneous transplant model
Settings: 0.4 mg/kg, tail vein, on Day 21, female SCID mice
Procedure: The antitumor effects of the antibody-drug conjugates were evaluated by using animal models in which cells of a human tumor cell line had been transplanted into immunodeficient mice, or cells of a mouse tumor cell line had been transplanted into immunocompetent mice. 4 to 6 Week-old SCID mice (CB17/Icr-Prkdc[scid]/CrlCrlj, Jackson Laboratory Japan, Inc.), NSG mice (NOD.Cg-Prkdcscid Il2rgtm1Wjl/SzJ, Jackson Laboratory Japan, Inc.), or B6J mice (C57BL/6J, Jackson Laboratory Japan, Inc.) were habituated for 3 days or more under SPF conditions before experimental use. The mice were fed with sterilized solid feed and given sterilized tap water. The major and minor diameters of the transplanted tumors were measured twice a week with an electronic digital caliper (Mitutoyo Corporation), and the estimated tumor volume was calculated using the following formula. Estimated tumor volume (mm^3) = 1/2 × major diameter (mm) × [minor diameter (mm)]^2 All antibody-drug conjugates were diluted with ABS and administered into the tail vein at doses shown in each Example. In addition, ABS (vehicle) or control hIgG-PBD prepared in Reference Example 4 was administered as the control group, in a similar manner. 5 to 6 Mice were used per group in the experiment. To analyze the LRRC15 expression in mouse tumor models, immunohistochemical staining of LRRC15 was performed. […]

B1: H02L01-V1-PBD (conjugate)
heavy: EVQLVESGGGLVQPGGSLRLSCAASGFTFRDYYMAWVRQAPGKGLEWVSSIGFDESRTYYADSVKGRFTISRDDSKNTLYLQMNSLRAEDTAVYYCARHGVSKYSGDNWFAYWGQGTLVTVSSASTKGPSVFPLAPSSKSTSGGTAALGCLVKDYFPEPVTVSWNSGALTSGVHTFPAVLQSSGLYSLSSVVTVPSSSLGTQTYICNVNHKPSNTKVDKKVEPKSCDKTHTCPPCPAPEAAGGPSVFLFPPKPKDTLMISRTPEVTCVVVDVSHEDPEVKFNWYVDGVEVHNAKTKPREEQYNSTYRVVSVLTVLHQDWLNGKEYKCKVSNKALAAPIEKTISKAKGQPREPQVYTLPPSREEMTKNQVSLTCLVKGFYPSDIAVEWESNGQPENNYKTTPPVLDSDGSFFLYSKLTVDKSRWQQGNVFSCSVMHEALHNHYTQKSLSLSPGK
light: DIQMTQSPSSLSASVGDRVTITCKSSQGLLYSGDQKNYLAWYQQKPGKAPKLLIYWASTRQSGVPSRFSGSGSGTDFTLTISSLQPEDFATYYCQQYYDPPYTFGQGTKVEIKRTVAAPSVFIFPPSDEQLKSGTASVVCLLNNFYPREAKVQWKVDNALQSGNSQESVTEQDSKDSTYSLSSTLTLSKADYEKHKVYACEVTHQGLSSPVTKSFNRGEC
- antitumor effect (estimated tumor volume): antitumor activity higher than that of the vehicle and control hIgG-PBD
